B1: HDV Ribozyme (parent)
chain: GGCCGGCAUGGUCCCAGCCUCCUCGCUGGCGCCGGCUGGGCAACAUUCCGAGGGGACCGUCCCCUCGGUAAUGGCGAAUGGGACCCA

Variants of: B1
Experiment: self-cleavage, relative activity (ratio to wild type); higher = more cleavage; co-transcriptional

| Variant | self-cleavage |
| --- | --- |
| GGCCGGCAUGGUCCCAGCCUCCUCACUGGCGCCGGCAGGGCAACAUUCCGAGGGGACCGUCCCCUCGGUAAUGGCGAAUGGGACCCA [G25A U37A] | 0.213 |
| GGCCGGCAUGGUCCCAGCCUCCUCGCUGUCGCCGACUGGGCAACAUUCCGAGGGGACCGUCCCCUCGGUAAUGGCGAAUGGGACCCA [G29U G35A] | 0.0744 |
| GGCCGGCAUGGUCCCAGCCUCCUCGCUGGCGCCGGCUGGGCAACAUUCCGAUGGGACCGUCCCCUCGGUAAUGGCGAACGGGACCCA [G52U U79C] | 0.59 |
| GGCCGGCAUUGUCCCAGCCUCCUCGCUGGCGCCGGCUGGGCAACAUUCCGAGGGGACCGUCCCCUCGGUAAUUGCGAAUGGGACCCA [G10U G73U] | 0.0639 |
| GGCCGGCAUGGUCCAAGCCUCCUCGCUGGCGCCGGCUGGGCAACAUUCCGAGGGGACCGUCCCCUCGGGAAUGGCGAAUGGGACCCA [C15A U69G] | 0.492 |
| GGCCGGCAUGGUCCCAGCCUCCUCGCUGGCGCCGGCUGGGCAAAAUUCCGAGGGGACCGUCCCCUCGGUAAUGUCGAAUGGGACCCA [C44A G74U] | 0.702 |
| GGCCGGCAUGGUCCCAGCUUCCUCGCUGGCGCCGGCUGGGCAACAUUCCGAGGAGACCGUCCCCUCGGUAAUGGCGAAUGGGACCCA [C19U G54A] | 0.179 |
| GGCCGGCAUGGGCCCAGCCUCCUCGCUGGCGCCGGCUGGGCAACAUUCCGAGGGGACCGUCCCCUCGUUAAUGGCGAAUGGGACCCA [U12G G68U] | 0.779 |
| GGCCGGCAUGGUCCCAGCCUCCUCGCUGGCGCCGGCUGGGCAACAUUCCGAGGGGGGCGUCCCCUCGGUAAUGGCGAAUGGGACCCA [A56G C57G] | 0.8 |
| GGCCGGCAUGGUCCCAGCCUCCUCGUAGGCGCCGGCUGGGCAACAUUCCGAGGGGACCGUCCCCUCGGUAAUGGCGAAUGGGACCCA [C26U U27A] | 0.886 |
| GGCCGGCAUGGUCCCAGCCUCCUCGCUAGCGCCGGCUGGGCAACAUUCCGAGGGGUCCGUCCCCUCGGUAAUGGCGAAUGGGACCCA [G28A A56U] | 0.111 |
| GGCCGGCAUGGUCCAAGCCUCCUCGGUGGCGCCGGCUGGGCAACAUUCCGAGGGGACCGUCCCCUCGGUAAUGGCGAAUGGGACCCA [C15A C26G] | 0.415 |
| GGCCGUCAUGGUCCCAGCCUCCUGGCUGGCGCCGGCUGGGCAACAUUCCGAGGGGACCGUCCCCUCGGUAAUGGCGAAUGGGACCCA [G6U C24G] | 0.0462 |
| GGCCGGCAUGGUCCCAGCCUCCUCGCUGGCGCCGGCUGGGCAACAUUCCGAGUGGACCGGCCCCUCGGUAAUGGCGAAUGGGACCCA [G53U U60G] | 0.972 |
| GGCCGGCAAGGUCCCAGCCUCCUCGCUGGCGCCGGCUGGGCAACAUUCCGAGGGGACCGUCCCCUCGGUAAUGGCUAAUGGGACCCA [U9A G76U] | 1.02 |
| GGCCGGCAUGGUCCCAGCCUCCUCGUUGGCGCCGGCUGGGCAACAUUCCGAGGGGACCGUCCCCUCGGUAAUGGCGCAUGGGACCCA [C26U A77C] | 0.883 |
| GGCUGGCAUGGUCCCAGCCUCCUCGCUGGCGCCGGCUGGGCAACAUUCCGAGGGGACCGUCCCCUCGGUAAUGGAGAAUGGGACCCA [C4U C75A] | 0.128 |
| GGCCGGCAUGGUCCCAGCCUCCUCGCUGGCGCCGGCUGGGCAACAUUCCGAGGGGACCGUCCUCUCGGUAAUGGUGAAUGGGACCCA [C63U C75U] | 0.324 |
| GGCCGGCAUGGUCCCAGCCUCCCCGCUGGCGCCGGCUGGGCAACAUUCCGAGGGGACCGUCCCCUCGGUAACGGCGAAUGGGACCCA [U23C U72C] | 0.665 |
| GGCCGGCAUGGUCCCAGCUUCCUCGCUGGCUCCGGCUGGGCAACAUUCCGAGGGGACCGUCCCCUCGGUAAUGGCGAAUGGGACCCA [C19U G31U] | 0.115 |
| GGCCGGCAUGGUCCCAGCCUCUUCGCUGGCGCCGGCUGGGCAACAUUCCGAGGGGACCGUCCCCUCGGUAAUUGCGAAUGGGACCCA [C22U G73U] | 0.157 |
| GGCCGGCAUGGUCCCAGCCUCCUCGCUGGCACCGGCUGGGCAACAUUCCGAGGGGACCGUCCCCUCGGUAAUGGCGAGUGGGACCCA [G31A A78G] | 0.0978 |

| Variant | self-cleavage |
| --- | --- |
| GGCCGGCAUGGUCCCAGCCUCCUCGCUGGCGCCGGCUGGGCAACAUUCCGAGCGGACGGUCCCCUCGGUAAUGGCGAAUGGGACCCA [G53C C58G] | 1 |
| GGCCGGCAUCGUCUCAGCCUCCUCGCUGGCGCCGGCUGGGCAACAUUCCGAGGGGACCGUCCCCUCGGUAAUGGCGAAUGGGACCCA [G10C C14U] | 1.11 |
| GGCCGUCAGGGUCCCAGCCUCCUCGCUGGCGCCGGCUGGGCAACAUUCCGAGGGGACCGUCCCCUCGGUAAUGGCGAAUGGGACCCA [G6U U9G] | 0.511 |
| GGCCGGCAUGGUCCCAGCAUCCUCGCUGGCGCCGGCUCGGCAACAUUCCGAGGGGACCGUCCCCUCGGUAAUGGCGAAUGGGACCCA [C19A G38C] | 0.0248 |
| GGCCGGCAUGGUCCCAGCCUCCUCGCUGGCGCCGGCUGGGCAACAUUCCGAGGGGACCGUCCCCUCGGUAAUGGCAUAUGGGACCCA [G76A A77U] | 0.76 |
| UGCCGCCAUGGUCCCAGCCUCCUCGCUGGCGCCGGCUGGGCAACAUUCCGAGGGGACCGUCCCCUCGGUAAUGGCGAAUGGGACCCA [G1U G6C] | 0.656 |
| GGCCGGCAUGGUCCCAGCCUCCUCGCUGGCGCCGGCUGGGCAGCGUUCCGAGGGGACCGUCCCCUCGGUAAUGGCGAAUGGGACCCA [A43G A45G] | 0.554 |
| GGCCGGCAUGGUCCCAGCCUCCUCGCUGGCGCCGGCUGGGCAACAUUCCGAGGGGACCGUCGCCUCGGUAAUGGCGAAUGGGACCAA [C62G C86A] | 0.752 |
| GGCCGGCAUGGUCCCAGCGUCCUCGCUGGCGCCCGCUGGGCAACAUUCCGAGGGGACCGUCCCCUCGGUAAUGGCGAAUGGGACCCA [C19G G34C] | 0.0978 |
| GGCCGGCAUGGUCCCAGCCUCCUCGCAGGCGCCGGCUGGGCAACAUUCCGAGGGGACCGUCCCCUUGGUAAUGGCGAAUGGGACCCA [U27A C66U] | 0.789 |
| GGCCGGCAUGGUCCCAGCCUCCUCGCUGGCGCCGGGUGGGCAACAUUCCGAGGGGACCGUCCCCUCGGUAAUGGCGAAUGGGACCUA [C36G C86U] | 0.0437 |
| GGCCGGCAUGGUCCCAGCCUCCUCGCUGGCGCCGGCUGUGGAACAUUCCGAGGGGACCGUCCCCUCGGUAAUGGCGAAUGGGACCCA [G39U C41G] | 0.46 |
| GGCCGGCACGGUCCCAGCCUCCUCGGUGGCGCCGGCUGGGCAACAUUCCGAGGGGACCGUCCCCUCGGUAAUGGCGAAUGGGACCCA [U9C C26G] | 0.886 |
| GGCCGUCAUGGUCCCAGCCUCCUCGCUGGCGCCGGCUGGGCAACAUUCCGAGGGGACCGUCCCCUUGGUAAUGGCGAAUGGGACCCA [G6U C66U] | 0.645 |
| GGCCGGCAUGGUCCCACCCUCCUCGCUGGCGCCGGCUGGGCAACGUUCCGAGGGGACCGUCCCCUCGGUAAUGGCGAAUGGGACCCA [G17C A45G] | 0.119 |
| GGCCGGCAUGGUCCCAGCCUCCUCGCUGGCGCCGGCUGGGCAUCAUUCCGAGGGGACCGUUCCCUCGGUAAUGGCGAAUGGGACCCA [A43U C61U] | 0.302 |
| GGCCGGCAUGGUCCCAGCCUCCUCGCUGGCGCCGGAUGGGCAACAUUCCGAGGGGACCGUCCCCUCGGUAAUGGCGAAUGGGAUCCA [C36A C84U] | 0.163 |
| GGCCGGCAUGGUCCCAGCCUCCUCGCUGGCGCCGGCUGGGCAACAUUACGUGGGGACCGUCCCCUCGGUAAUGGCGAAUGGGACCCA [C48A A51U] | 1.1 |
| GGCCGGCAUGGUCCCAGCCUGCUCGCUGGCGCCGGCUGGGCAAUAUUCCGAGGGGACCGUCCCCUCGGUAAUGGCGAAUGGGACCCA [C21G C44U] | 0.0898 |
| GGCCGACAUGGUCCCAGCCUCCUCGCUGGCGCCGGCUGAGCAACAUUCCGAGGGGACCGUCCCCUCGGUAAUGGCGAAUGGGACCCA [G6A G39A] | 0.277 |
| GGCCGGCAUAGUCCUAGCCUCCUCGCUGGCGCCGGCUGGGCAACAUUCCGAGGGGACCGUCCCCUCGGUAAUGGCGAAUGGGACCCA [G10A C15U] | 0.332 |
| GGCCGGCGUGGUGCCAGCCUCCUCGCUGGCGCCGGCUGGGCAACAUUCCGAGGGGACCGUCCCCUCGGUAAUGGCGAAUGGGACCCA [A8G C13G] | 0.0923 |

| Variant | self-cleavage |
| --- | --- |
| GGCCGGCAUGGUCCCAGCCUCCUCGCUGGCGCCGGCUGGGCAUCAUUCCGAUGGGACCGUCCCCUCGGUAAUGGCGAAUGGGACCCA [A43U G52U] | 0.339 |
| GGCCGGCAUGGUCCCAGCCUCCUCGCUGGCGCCGGCUGGGCUACAUUCCGAGGGGUCCGUCCCCUCGGUAAUGGCGAAUGGGACCCA [A42U A56U] | 0.577 |
| GGCCGGCAUGGUCCCAGCCUCCUCGCUGGCGCCGGCUGGGCAACAUUCCGAGGGGACCGGCCACUCGGUAAUGGCGAAUGGGACCCA [U60G C63A] | 0.831 |
| GGCCGGCAUGGUCCCAGACUCCUCGCUGGCGCCGGCUGGGCAACAUUCCGAGGGGACCGUCCCCUCGGUAAUAGCGAAUGGGACCCA [C18A G73A] | 0.0755 |
| GGCCGGCAUGGUCCCAUCCUCCUCGCCGGCGCCGGCUGGGCAACAUUCCGAGGGGACCGUCCCCUCGGUAAUGGCGAAUGGGACCCA [G17U U27C] | 0.308 |
| GGCCGGCAUGGUCCCAGCCCCCUCGCUGGCGCCGGCUGGGCAACAUUCCGAGGGGACCGUUCCCUCGGUAAUGGCGAAUGGGACCCA [U20C C61U] | 0.0723 |
| GGCCGGCAUGGUCCCAGCCUCCUCGCUGGCGACGGCUGGGCCACAUUCCGAGGGGACCGUCCCCUCGGUAAUGGCGAAUGGGACCCA [C32A A42C] | 0.162 |
| GGCCGGCAUGGUCCCAGCCUCCUCGCUGGCGCCGGCAGGGCAACAUUCCGAGGGGACCGGCCCCUCGGUAAUGGCGAAUGGGACCCA [U37A U60G] | 0.192 |
| GGCCGGCAUGGUCCCAGCCUCCUCGCUGGCGCCGGCUGUGCAACAUUCCGAGGGCACCGUCCCCUCGGUAAUGGCGAAUGGGACCCA [G39U G55C] | 0.698 |
| GGCCGGCAUGGUCCCAGCCUCCUCGCUGGCGCCGGCUGGGGAACAUUCCGAGGGGACCGUCCCCUCGGUAAUGGCGAAUGGGACCCC [C41G A87C] | 0.65 |
| GGCCGGCAUGGUCCCAGCCUCCUCGCUGGCGCCGGCUGGGCAACAUUCCGAGGGGAGCGUCCCCUCCGUAAUGGCGAAUGGGACCCA [C57G G67C] | 0.923 |
| GGCCGGCAUGGUCCCAGCCUCCUCGCUCGCGCCGGCUGGGGAACAUUCCGAGGGGACCGUCCCCUCGGUAAUGGCGAAUGGGACCCA [G28C C41G] | 0 |
| GGCCGGCAUGGUCCCAGGCUCCUCGCUGGCGCCGGCUGGGCAACAUUCCGAGGGGACCGACCCCUCGGUAAUGGCGAAUGGGACCCA [C18G U60A] | 0 |
| GGCCGGCAUGGUCCCAGCCUCCUCGCUGGCGCCGGCUGGGCAACAUUCCGAGGGGACCGUCUCCUCGGUAAUGGUGAAUGGGACCCA [C62U C75U] | 0.173 |
| GGCCGGCAUGGUCCCAGCCUCCUCGCUGGCGACGGCUGGGCAACAUUCCGACGGGACCGUCCCCUCGGUAAUGGCGAAUGGGACCCA [C32A G52C] | 0.0831 |
| GGCCGGCAUGGUCACAGCCUCCUCGCUGCCGCCGGCUGGGCAACAUUCCGAGGGGACCGUCCCCUCGGUAAUGGCGAAUGGGACCCA [C14A G29C] | 0.0302 |
| GACCGGCAUGGUCCCAGCCUCCUCGCUGGCGCCGGCUGGGCAACAUUCCGAGGGGACCGACCCCUCGGUAAUGGCGAAUGGGACCCA [G2A U60A] | 0.208 |
| GGCCGGCAUGGUCCCAGCCUCCUCGCUGGCGCCGGCUGGGCAACCUUCCGGGGGGACCGUCCCCUCGGUAAUGGCGAAUGGGACCCA [A45C A51G] | 0.587 |
| GGCCGGCAUGGUCCCAGCAUCCUCGCUGGCGCCGGCUGGGCAACAUUCCGAGGGGGCCGUCCCCUCGGUAAUGGCGAAUGGGACCCA [C19A A56G] | 0.256 |
| GGCCGGCAUGGUCCCAGCCCCCUCGCUGGCGCCGGCUGGGCAACAUUCCGAGGGGACCGUCCCCUCGGUAAUGGCGAAUGGGACGCA [U20C C85G] | 0.0519 |

— the RNAGym collection of RNA variant scans (doi:10.7554/elife.80360)
